The results in this text go back to paper PMC3811995, “Zebavidin - An Avidin-Like Protein from Zebrafish” (PLoS ONE, 2013).

“And” between values parts separate entries of the source, which are not always exact repeats. Identical values can stand only once.

In test [1] the target is T1, zebavidin (Danio rerio, UniProt E7F650).
T1 sequence (E7F650 31-154): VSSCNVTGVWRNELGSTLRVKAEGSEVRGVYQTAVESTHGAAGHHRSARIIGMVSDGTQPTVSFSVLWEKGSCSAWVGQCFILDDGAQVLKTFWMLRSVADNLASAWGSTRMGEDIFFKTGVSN
The test can be described thus: crystal structure at […] Å; direct and competitive ITC ([…] °C); [3H]biotin dissociation; native MS; DSC. The test is classed as binding. Also on record: gene avd; first 30 amino acids of the ORF replaced with OmpA signal peptide from Bordetella avium (secreted core); homotetramer.

In test [2] the target is T1, zebavidin. The test can be described thus: ITC ([…] °C). The test is classed as binding. Also on record: gene avd; first 30 amino acids of the ORF replaced with OmpA signal peptide from Bordetella avium (secreted core).
Test [3] deals with T1, zebavidin. The test can be described thus: fluorescence quenching titration ([…] °C). The test is classed as binding. More on the design: gene avd; first 30 amino acids of the ORF replaced with OmpA signal peptide from Bordetella avium (secreted core).
Test [4] addresses zebavidin (recombinant core, expressed in E. coli) (zebrafish (Danio rerio)). The test can be described thus: native MS; ESI FT-ICR, 10 µM zebavidin (monomer) in 10 mM ammonium acetate, pH 7, without biotin.
Test [5] shares this target. Put plainly: native MS; ESI FT-ICR, 10 µM zebavidin in 500 mM ammonium acetate, in the absence and presence of 30 µM biotin.
For test [6] the target is unchanged. The test can be described thus: native MS; ESI FT-ICR, 10 µM zebavidin in 10 mM ammonium acetate, pH 7, with 30 µM biotin (3-fold molar excess).
Test [7] shares this target. The test can be described thus: SEC; Superdex200 10/300GL, 4 °C, 50 mM sodium phosphate, 2 mM EDTA, pH 7 with 0, 100 or 650 mM NaCl, with and without biotin.
For test [8] the target is unchanged. The test can be described thus: crystal structure; zebavidin in complex with biotin, 2.4 Å, space group P2(1)2(1)2, 16 monomers (four homotetramers) in the asymmetric unit.

`O=C(O)CCCC[C@@H]1SC[C@@H]2NC(=O)N[C@@H]21` [BTN, biotin]: the Kd on zebavidin [1] is given as 4.8/4.4 x10^-9 M.

On to `C[C@@H]1NC(=O)N[C@@H]1CCCCCC(=O)O` [desthiobiotin], for which the Kd at zebavidin [2] is on record as 660/700 x10^-9 M.

At zebavidin [3], ArcDia BF560 registered a Kd of 140 nM.

Consider “zebavidin (recombinant core, expressed in E. coli) (natural protein)”, for which the stoichiometry N in test [4] was 2 and 4; in test [5] it was 4; in test [6], 4; in test [7], 4; in test [8], 4.
